Patent publication US20100129383A1 (GOVERNORS OF THE UNIVERSITY OF ALBERTA, published 2010)

Molecular target: T1, DEC-205 receptor on DC 2.4 cells (mouse) (mouse, UniProt Q60767 28-1723)
T1 construct: whole, on cells; also called CD205
Assay: competition cell ELISA on DC 2.4 cells; competitor bfFp (WET7) pre-bound

B1: HB290 mAb (rat anti-mouse DEC-205 monoclonal antibody) (antibody, V domains shown)
VH: EVKLVESGGGLVQPGGSLRLSCAASGFTFNDFYMNWIRQPPGQAPEWLGVIRNKGNGYTTEVNTSVKGRFTISRDNTQNILYLQMNSLRAEDTAIYYCARGGPYYYSGDDAPYWGQGVMVTVSS
VL: DIQMTQSPSFLSTSLGNSITITCHASQNIKGWLAWYQQKSGNAPQLLIYKASSLQSGVPSRFSGSGSGTDYIFTISNLQPEDIATYYCQHYQSFPWTFGGGTKLELK
notes: Full-length rat mAb from the ATCC hybridoma HB290; also called full-length HB290 mAb; NLDC-145
B1: binds.
